Sequences and labels used below:
B1: Connector enhancer of kinase suppressor of ras 2, residues 9 to 71; numbered along this chain, Q8WXI2 (parent)
chain: SKWSPSQVVDWMKGLDDCLQQYIKNFEREKISGDQLLRITHQELEDLGVSRIGHQELILEAVD

± gives the uncertainty stated by the source.

Variants of B1 are the subject of this data set. The experiment in a line: abundance fitness (aPCA) (normalised: wild type 0, dead -1); higher = more abundant; growth selection in yeast, the domain comes from the species named. The conditions noted are these: Homo sapiens.
As to D34A, the abundance fitness came to 0.037 ± 0.028.
In the case of D34K, the abundance fitness was -0.056 ± 0.057.
D34N: the abundance fitness was -0.087 ± 0.039.
The figure for D34M is -0.108 ± 0.037; for S4K it is -0.141 ± 0.043; for S4H it is -0.385 ± 0.067.
Take S4D: the abundance fitness is -0.027 ± 0.031.
Turning to S4M, the abundance fitness is -0.273 ± 0.041.
In the case of S4F, the abundance fitness was -0.656 ± 0.049.
The figure for S4A is -0.835 ± 0.044; for G14S it is -0.005 ± 0.027; for G14R it is -0.3 ± 0.025.
Consider G14V, for which the abundance fitness was -0.895 ± 0.053.
In the case of G14L, the abundance fitness was -0.579 ± 0.031.
Take P5E: the abundance fitness is -0.336 ± 0.042.
P5C: the abundance fitness is 0.026 ± 0.041.
As to Q35S, the abundance fitness was -0.291 ± 0.039.
The figure for Q35A is -0.088 ± 0.033; for Q35Y it is -0.39 ± 0.074; for Q35V it is -0.19 ± 0.037.
In the case of Q35M, the abundance fitness is -0.152 ± 0.049.
Take G33M: the abundance fitness is -0.236 ± 0.046.
The same measure for G33P: -0.84 ± 0.069; for G33H: -0.669 ± 0.073.
As to G33I, the abundance fitness was -0.387 ± 0.1.
Regarding G33L, the abundance fitness was -0.423 ± 0.034.
The same measure for G33F: -0.198 ± 0.05; for G33A: -0.745 ± 0.05.
As for G33R, the abundance fitness was -0.631 ± 0.028.
L36M: the abundance fitness is -0.334 ± 0.045.
L36C: the abundance fitness is -0.961 ± 0.089.
The figure for L36G is -0.845 ± 0.052; for L36N it is -0.854 ± 0.075; for L36E it is -0.769 ± 0.039.
As for L36H, the abundance fitness was -0.971 ± 0.12.
The same measure for L15P: -0.712 ± 0.043; for L15K: -0.48 ± 0.032; for L15I: -0.446 ± 0.046.
Take L15Q: the abundance fitness is -0.164 ± 0.035.
For the variant L15H, the abundance fitness is -0.781 ± 0.067.
V8L: the abundance fitness is -0.775 ± 0.044.
V8Y: the abundance fitness is -1.01 ± 0.086.
The same measure for V8C: -0.716 ± 0.057.
In the case of V8R, the abundance fitness is -0.872 ± 0.06.
As to V8I, the abundance fitness is -0.524 ± 0.038.
For V8D, the abundance fitness was -0.783 ± 0.085.
On to V8Q, for which the abundance fitness was -0.947 ± 0.092.
As for S1W, the abundance fitness was -0.22 ± 0.045.
As for S1F, the abundance fitness is -0.13 ± 0.058.
The same measure for S1D: -0.028 ± 0.059; for S1G: -0.134 ± 0.052; for S1V: -0.015 ± 0.056.
The same measure for M12R: -1.01 ± 0.052.
In the case of M12T, the abundance fitness is -0.849 ± 0.072.
Consider M12H, for which the abundance fitness is -0.766 ± 0.048.
Turning to M12V, the abundance fitness was -0.266 ± 0.024.
The figure for E60H is -0.111 ± 0.038.
For E60G, the abundance fitness is -0.096 ± 0.031.
In the case of E60T, the abundance fitness was -0.057 ± 0.03.
Regarding E60N, the abundance fitness is -0.012 ± 0.04.
In the case of E60M, the abundance fitness was -0.226 ± 0.032.
On to E60C, for which the abundance fitness was -0.187 ± 0.037.
The figure for E60I is -0.531 ± 0.056; for E60F it is -0.615 ± 0.058.
Regarding E60D, the abundance fitness is -0.012 ± 0.047.
The same measure for E60R: -0.072 ± 0.025.
As for W3K, the abundance fitness is -0.409 ± 0.064.
W3F: the abundance fitness is -0.563 ± 0.067.
The figure for W3P is -0.764 ± 0.16.
Consider W3S, for which the abundance fitness was -0.504 ± 0.072.
The same measure for W3G: -0.597 ± 0.04.
Regarding W3D, the abundance fitness is -0.393 ± 0.061.
The figure for W3C is -0.713 ± 0.12; for S6Q it is -0.003 ± 0.032; for S6I it is -0.17 ± 0.04.
For S6E, the abundance fitness was -0.033 ± 0.035.
The figure for S6D is 0.026 ± 0.044; for S6C it is -0.195 ± 0.037; for S6N it is 0.016 ± 0.04.
Regarding D63G, the abundance fitness worked out at 0.041 ± 0.035.
On to D63L, for which the abundance fitness is -0.176 ± 0.063.
Regarding D63K, the abundance fitness is -0.059 ± 0.087.
The figure for D63C is -0.025 ± 0.05.
As to L44F, the abundance fitness is -0.722 ± 0.07.
As for L44I, the abundance fitness is -0.982 ± 0.23.
In the case of L44M, the abundance fitness is -0.399 ± 0.05.
Regarding L44E, the abundance fitness is -0.82 ± 0.067.
With L44R, the abundance fitness is -0.753 ± 0.036.
Take L44D: the abundance fitness is -0.657 ± 0.065.
In the case of L44H, the abundance fitness was -0.914 ± 0.089.
Turning to E29S, the abundance fitness was -0.043 ± 0.033.
Take E29F: the abundance fitness was -0.148 ± 0.036.
Consider E29W, for which the abundance fitness was -0.215 ± 0.03.
The figure for L57N is -0.533 ± 0.049; for L57Y it is -0.53 ± 0.051.
With L57V, the abundance fitness was -0.439 ± 0.033.
Turning to L57T, the abundance fitness was -0.448 ± 0.032.
The same measure for L57Q: -0.213 ± 0.043; for L57K: 0.021 ± 0.049.
Consider I39L, for which the abundance fitness was 0.01 ± 0.026.
For the variant I39S, the abundance fitness is -0.537 ± 0.037.
The same measure for I39F: -0.254 ± 0.045; for I39T: -0.455 ± 0.042; for I39G: -0.699 ± 0.034.
K13N: the abundance fitness is -0.212 ± 0.055.
In the case of K13V, the abundance fitness was -0.391 ± 0.026.
Turning to K13I, the abundance fitness is -0.422 ± 0.052.
The figure for K13W is -0.339 ± 0.034.
Turning to I58W, the abundance fitness is -0.734 ± 0.18.
As for I58L, the abundance fitness was -0.096 ± 0.039.
Take I58G: the abundance fitness was -0.945 ± 0.24.
For I58S, the abundance fitness was -0.714 ± 0.065.
Consider I58R, for which the abundance fitness was -0.811 ± 0.076.
The figure for I58V is -0.374 ± 0.063; for I23E it is -0.412 ± 0.036.
The same measure for I23F: -0.765 ± 0.092; for I23D: -0.698 ± 0.07; for I23P: -0.673 ± 0.059.
In the case of I23M, the abundance fitness was -0.34 ± 0.05.
Consider I23L, for which the abundance fitness was -0.163 ± 0.028.
In the case of I23V, the abundance fitness was -0.008 ± 0.023.
On to E45L, for which the abundance fitness was -0.045 ± 0.026.
The figure for E45I is -0.076 ± 0.035; for E45H it is -0.04 ± 0.022; for E45R it is -0.017 ± 0.021.
Regarding E45F, the abundance fitness was -0.033 ± 0.043.
E45N: the abundance fitness was -0.015 ± 0.039.
Regarding E45V, the abundance fitness was -0.118 ± 0.028.
Regarding E45W, the abundance fitness is -0.193 ± 0.027.
Take E45G: the abundance fitness was -0.12 ± 0.029.
In the case of E43R, the abundance fitness amounted to 0.006 ± 0.023.
With E43D, the abundance fitness was 0.011 ± 0.034.
Take E43Q: the abundance fitness is 0.03 ± 0.037.
Consider L37C, for which the abundance fitness is -0.108 ± 0.041.
The figure for L37G is -0.168 ± 0.028.
For the variant L37H, the abundance fitness was -0.158 ± 0.071.
Take L37V: the abundance fitness was -0.078 ± 0.025.
Regarding L37A, the abundance fitness is -0.073 ± 0.023.
The same measure for L37T: -0.155 ± 0.037; for L37F: -0.239 ± 0.052; for D16E: -0.266 ± 0.044.
The figure for D16Y is -0.667 ± 0.035.
Take D16I: the abundance fitness is -0.615 ± 0.038.
The same measure for D16N: -0.311 ± 0.033; for D16L: -0.702 ± 0.035.
The figure for D16G is -0.466 ± 0.028; for Q55P it is -0.654 ± 0.042; for Q55W it is -1.14 ± 0.06.
As to Q55C, the abundance fitness was -0.403 ± 0.043.
Q55T: the abundance fitness is -0.598 ± 0.036.
L47N: the abundance fitness was -0.783 ± 0.059.
The figure for L47Y is -0.72 ± 0.067; for L47E it is -0.795 ± 0.038; for L47M it is -0.083 ± 0.039.
For the variant L47Q, the abundance fitness is -0.838 ± 0.073.
On to F26G, for which the abundance fitness is -0.727 ± 0.035.
The figure for F26R is -0.867 ± 0.039; for F26T it is -0.774 ± 0.069; for F26I it is -0.356 ± 0.12.
Turning to E56S, the abundance fitness is -0.17 ± 0.032.
With E56C, the abundance fitness is -0.176 ± 0.043.
As for E56L, the abundance fitness is -0.158 ± 0.029.
In the case of E56V, the abundance fitness is -0.161 ± 0.034.
As for E56N, the abundance fitness was -0.046 ± 0.057.
In the case of E56G, the abundance fitness was -0.307 ± 0.031.
With E56Y, the abundance fitness was -0.333 ± 0.062.
Consider D46C, for which the abundance fitness is -0.188 ± 0.044.

For the origin of these results see the Human Domainome abundance scans (Beltran et al. 2025).
